Reference: the supplement of paper PMC9112550, “Optimization of the antimicrobial peptide Bac7 by deep mutational scanning” (BMC Biology, 2022)

System: Escherichia coli TOP10
Assay: shrunken log2 fold change of peptide-encoding DNA abundance (4.5 h post-induction vs induction); higher = less antimicrobial activity (less host growth inhibition)
Conditions: time post-induction: 4.5 h; library: site-saturation at positions 5, 18, 19, 20
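Note: peptides expressed intracellularly from a pBAD plasmid library in pooled LB shake-flask culture, induced with 0.3% L-arabinose, DNA abundance read by NGS, three biological replicates, DESeq2 with apeglm shrinkage.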

Row | Sequence | shrunken log2 fold change
1 | RRIRIRPPRLPRPRPRPSDYPRP | -0.385
2 | RRIRIRPPRLPRPRPRPSEMPRP | -0.553
3 | RRIRIRPPRLPRPRPRPSFKPRP | -0.494
4 | RRIRIRPPRLPRPRPRPSFVPRP | -0.509
5 | RRIRIRPPRLPRPRPRPSGNPRP | 0.0322
6 | RRIRIRPPRLPRPRPRPSHFPRP | -0.641
7 | RRIRIRPPRLPRPRPRPSHHPRP | -0.941
8 | RRIRIRPPRLPRPRPRPSKSPRP | -0.413
9 | RRIRIRPPRLPRPRPRPSKVPRP | -1
10 | RRIRIRPPRLPRPRPRPSLFPRP | -0.66
11 | RRIRIRPPRLPRPRPRPSLVPRP | 0.0916
12 | RRIRIRPPRLPRPRPRPSNGPRP | 0.0107
13 | RRIRIRPPRLPRPRPRPSPTPRP | -0.424
14 | RRIRIRPPRLPRPRPRPSQDPRP | -0.31
15 | RRIRIRPPRLPRPRPRPSQKPRP | -0.187
16 | RRIRIRPPRLPRPRPRPSQQPRP | -0.11
17 | RRIRIRPPRLPRPRPRPSRMPRP | -0.271
18 | RRIRIRPPRLPRPRPRPSSRPRP | -0.538
19 | RRIRIRPPRLPRPRPRPSSSPRP | 0.148
20 | RRIRIRPPRLPRPRPRPSSWPRP | 0.025
21 | RRIRIRPPRLPRPRPRPSVAPRP | 0.011
22 | RRIRIRPPRLPRPRPRPSVCPRP | -0.294
23 | RRIRIRPPRLPRPRPRPSVFPRP | -0.219
24 | RRIRIRPPRLPRPRPRPSVGPRP | -0.261
25 | RRIRIRPPRLPRPRPRPSVIPRP | -0.661

Row | Sequence | shrunken log2 fold change
26 | RRIRIRPPRLPRPRPRPSYAPRP | -0.0605
27 | RRIRIRPPRLPRPRPRPTATPRP | 0.0371
28 | RRIRIRPPRLPRPRPRPTAYPRP | -0.425
29 | RRIRIRPPRLPRPRPRPTCDPRP | -0.369
30 | RRIRIRPPRLPRPRPRPTCRPRP | -0.103
31 | RRIRIRPPRLPRPRPRPTCVPRP | 0.00176
32 | RRIRIRPPRLPRPRPRPTCYPRP | -0.266
33 | RRIRIRPPRLPRPRPRPTDYPRP | -0.223
34 | RRIRIRPPRLPRPRPRPTEHPRP | -0.449
35 | RRIRIRPPRLPRPRPRPTENPRP | 0.0227
36 | RRIRIRPPRLPRPRPRPTGDPRP | 0.109
37 | RRIRIRPPRLPRPRPRPTGYPRP | -0.73
38 | RRIRIRPPRLPRPRPRPTHCPRP | -0.00414
39 | RRIRIRPPRLPRPRPRPTHDPRP | -0.0575
40 | RRIRIRPPRLPRPRPRPTHEPRP | -0.0459
41 | RRIRIRPPRLPRPRPRPTHPPRP | 0.225
42 | RRIRIRPPRLPRPRPRPTKAPRP | -0.162
43 | RRIRIRPPRLPRPRPRPTKDPRP | -0.491
44 | RRIRIRPPRLPRPRPRPTKGPRP | 0.0205
45 | RRIRIRPPRLPRPRPRPTKMPRP | -0.116
46 | RRIRIRPPRLPRPRPRPTKYPRP | -0.681
47 | RRIRIRPPRLPRPRPRPTLIPRP | -0.101
48 | RRIRIRPPRLPRPRPRPTLQPRP | 0.00305
49 | RRIRIRPPRLPRPRPRPTMDPRP | -0.118
50 | RRIRIRPPRLPRPRPRPTMGPRP | 0.0793

Row | Sequence | shrunken log2 fold change
51 | RRIRIRPPRLPRPRPRPTMPPRP | -0.22
52 | RRIRIRPPRLPRPRPRPTPDPRP | -0.0173
53 | RRIRIRPPRLPRPRPRPTPPPRP | 0.464
54 | RRIRIRPPRLPRPRPRPTPRPRP | 0.466
55 | RRIRIRPPRLPRPRPRPTQIPRP | 0.245
56 | RRIRIRPPRLPRPRPRPTRIPRP | 0.0411
57 | RRIRIRPPRLPRPRPRPTSPPRP | 0.118
58 | RRIRIRPPRLPRPRPRPTWHPRP | -0.242
59 | RRIRIRPPRLPRPRPRPTWKPRP | -0.0541
60 | RRIRIRPPRLPRPRPRPTYLPRP | -0.463
61 | RRIRIRPPRLPRPRPRPVANPRP | -0.109
62 | RRIRIRPPRLPRPRPRPVCVPRP | -0.279
63 | RRIRIRPPRLPRPRPRPVDGPRP | -0.169
64 | RRIRIRPPRLPRPRPRPVETPRP | 0.156
65 | RRIRIRPPRLPRPRPRPVFNPRP | -0.602
66 | RRIRIRPPRLPRPRPRPVHNPRP | -0.357
67 | RRIRIRPPRLPRPRPRPVIGPRP | -0.727
68 | RRIRIRPPRLPRPRPRPVKSPRP | -0.0366
69 | RRIRIRPPRLPRPRPRPVKTPRP | -0.0343
70 | RRIRIRPPRLPRPRPRPVLKPRP | -0.234
71 | RRIRIRPPRLPRPRPRPVMTPRP | -0.166
72 | RRIRIRPPRLPRPRPRPVNTPRP | -1.06
73 | RRIRIRPPRLPRPRPRPVPCPRP | -0.00376
74 | RRIRIRPPRLPRPRPRPVPFPRP | -0.264
75 | RRIRIRPPRLPRPRPRPVRGPRP | 0.413

Row | Sequence | shrunken log2 fold change
76 | RRIRIRPPRLPRPRPRPVRPPRP | 0.664
77 | RRIRIRPPRLPRPRPRPVSGPRP | 0.0231
78 | RRIRIRPPRLPRPRPRPVSMPRP | 0.0888
79 | RRIRIRPPRLPRPRPRPVTIPRP | 0.00236
80 | RRIRIRPPRLPRPRPRPVWGPRP | 0.0298
81 | RRIRIRPPRLPRPRPRPVWYPRP | -0.84
82 | RRIRIRPPRLPRPRPRPVYWPRP | -0.208
83 | RRIRIRPPRLPRPRPRPWANPRP | -0.0688
84 | RRIRIRPPRLPRPRPRPWCIPRP | -0.0951
85 | RRIRIRPPRLPRPRPRPWCSPRP | -0.412
86 | RRIRIRPPRLPRPRPRPWDEPRP | -0.156
87 | RRIRIRPPRLPRPRPRPWFRPRP | -0.129
88 | RRIRIRPPRLPRPRPRPWFTPRP | -0.563
89 | RRIRIRPPRLPRPRPRPWGQPRP | -0.00987
90 | RRIRIRPPRLPRPRPRPWHRPRP | 0.0544
91 | RRIRIRPPRLPRPRPRPWINPRP | -0.379
92 | RRIRIRPPRLPRPRPRPWIWPRP | -0.109
93 | RRIRIRPPRLPRPRPRPWKNPRP | -0.235
94 | RRIRIRPPRLPRPRPRPWKRPRP | -0.0143
95 | RRIRIRPPRLPRPRPRPWPQPRP | 0.0274
96 | RRIRIRPPRLPRPRPRPWTMPRP | -0.163
97 | RRIRIRPPRLPRPRPRPWWTPRP | -0.0807
98 | RRIRIRPPRLPRPRPRPWYSPRP | -0.821
99 | RRIRIRPPRLPRPRPRPWYVPRP | -0.247
100 | RRIRIRPPRLPRPRPRPYACPRP | -0.0484

Row | Sequence | shrunken log2 fold change
101 | RRIRIRPPRLPRPRPRPYAIPRP | -0.0122
102 | RRIRIRPPRLPRPRPRPYAVPRP | -0.937
103 | RRIRIRPPRLPRPRPRPYCMPRP | -1.34
104 | RRIRIRPPRLPRPRPRPYCYPRP | -0.0959
105 | RRIRIRPPRLPRPRPRPYDFPRP | 0.126
106 | RRIRIRPPRLPRPRPRPYEEPRP | -0.828
107 | RRIRIRPPRLPRPRPRPYELPRP | -0.0687
108 | RRIRIRPPRLPRPRPRPYESPRP | -0.0135
109 | RRIRIRPPRLPRPRPRPYFIPRP | -1.14
110 | RRIRIRPPRLPRPRPRPYFYPRP | -0.469
111 | RRIRIRPPRLPRPRPRPYHQPRP | 0.0196
112 | RRIRIRPPRLPRPRPRPYKDPRP | -0.317
113 | RRIRIRPPRLPRPRPRPYLFPRP | -0.376
114 | RRIRIRPPRLPRPRPRPYNAPRP | -0.734
115 | RRIRIRPPRLPRPRPRPYQHPRP | -0.136
116 | RRIRIRPPRLPRPRPRPYQIPRP | -0.273
117 | RRIRIRPPRLPRPRPRPYRTPRP | 0.0026
118 | RRIRIRPPRLPRPRPRPYSAPRP | -0.221
119 | RRIRIRPPRLPRPRPRPYSHPRP | -0.941
120 | RRIRIRPPRLPRPRPRPYSMPRP | -0.436
121 | RRIRIRPPRLPRPRPRPYWLPRP | -0.413
122 | RRIRIRPPRLPRPRPRPYWTPRP | -0.18
123 | RRIRIRPPRLPRPRPRPYYAPRP | -0.949
124 | RRIRKRPPRLPRPRPRPAALPRP | 0.831
125 | RRIRKRPPRLPRPRPRPAAYPRP | 0.361

Row | Sequence | shrunken log2 fold change
126 | RRIRKRPPRLPRPRPRPACHPRP | 0.211
127 | RRIRKRPPRLPRPRPRPACIPRP | 0.031
128 | RRIRKRPPRLPRPRPRPADAPRP | 0.194
129 | RRIRKRPPRLPRPRPRPADKPRP | 0.122
130 | RRIRKRPPRLPRPRPRPAEFPRP | 0.0773
131 | RRIRKRPPRLPRPRPRPAFCPRP | 0.422
132 | RRIRKRPPRLPRPRPRPAIGPRP | 1.04
133 | RRIRKRPPRLPRPRPRPAIIPRP | -0.0297
134 | RRIRKRPPRLPRPRPRPAIPPRP | 0.000942
135 | RRIRKRPPRLPRPRPRPAKRPRP | 2.15
136 | RRIRKRPPRLPRPRPRPAMEPRP | 0.0841
137 | RRIRKRPPRLPRPRPRPAMKPRP | 0.141
138 | RRIRKRPPRLPRPRPRPATQPRP | 0.958
139 | RRIRKRPPRLPRPRPRPAWLPRP | 0.564
140 | RRIRKRPPRLPRPRPRPAYGPRP | 0.397
141 | RRIRKRPPRLPRPRPRPAYSPRP | -0.0338
142 | RRIRKRPPRLPRPRPRPCADPRP | 0.006
143 | RRIRKRPPRLPRPRPRPCALPRP | 0.0167
144 | RRIRKRPPRLPRPRPRPCCTPRP | -0.0454
145 | RRIRKRPPRLPRPRPRPCDAPRP | 0.0682
146 | RRIRKRPPRLPRPRPRPCEIPRP | 0.128
147 | RRIRKRPPRLPRPRPRPCEMPRP | 0.0303
148 | RRIRKRPPRLPRPRPRPCFRPRP | -0.0108
149 | RRIRKRPPRLPRPRPRPCFSPRP | -0.51
150 | RRIRKRPPRLPRPRPRPCGEPRP | 0.166
